Data from patent US9878045B2, “Triorthogonal reagents for dual protein conjugation” (REGENTS OF THE UNIVERSITY OF MINNESOTA, priority 2013, dated 2018).

T1: PFTase (Saccharomyces cerevisiae, UniProt P22007+P29703)
T1 sequence (P22007 1-431): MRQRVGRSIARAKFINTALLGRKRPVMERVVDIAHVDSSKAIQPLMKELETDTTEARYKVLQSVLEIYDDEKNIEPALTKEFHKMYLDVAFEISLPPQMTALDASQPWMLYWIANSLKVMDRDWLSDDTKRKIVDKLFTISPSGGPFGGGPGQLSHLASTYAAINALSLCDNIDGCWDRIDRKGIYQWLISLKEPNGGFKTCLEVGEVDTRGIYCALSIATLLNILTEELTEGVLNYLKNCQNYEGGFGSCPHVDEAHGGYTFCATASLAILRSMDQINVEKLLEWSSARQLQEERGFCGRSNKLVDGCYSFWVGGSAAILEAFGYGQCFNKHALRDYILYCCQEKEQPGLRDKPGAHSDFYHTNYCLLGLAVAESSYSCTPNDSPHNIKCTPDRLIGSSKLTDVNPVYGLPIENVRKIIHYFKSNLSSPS
T1 sequence (P29703 1-316): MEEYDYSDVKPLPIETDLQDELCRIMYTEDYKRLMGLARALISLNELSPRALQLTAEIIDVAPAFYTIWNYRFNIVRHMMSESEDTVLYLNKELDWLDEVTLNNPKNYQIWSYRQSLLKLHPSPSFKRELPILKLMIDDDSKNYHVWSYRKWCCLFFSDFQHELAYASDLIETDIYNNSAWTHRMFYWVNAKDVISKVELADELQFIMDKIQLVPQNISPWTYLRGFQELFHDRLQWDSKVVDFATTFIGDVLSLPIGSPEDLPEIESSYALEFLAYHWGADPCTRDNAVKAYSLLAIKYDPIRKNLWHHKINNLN


Columns and labels:
Test in all cases: Continuous fluorescence-based PFTase enzyme assay, prenylation of N-dansyl-GCVIA (2)
Type in all cases: biochemical, Yeast
PFTase = molecular target: T1, PFTase
Method: (§1) Next, a kinetic analysis of that reaction was performed using varying concentrations of 1 and N-dansyl-GCVIA (SEQ ID NO: 2) (2) in the presence of PFTase showing that the enzymatic process obeyed saturation kinetics. Steady-state kinetic parameters for the prenylation reaction using the bifunctional aldehyde-alkyne analogue are shown in FIG. 4. […] Nevertheless, despite this lower activity with 1, using elevated levels of PFTase (200 nM), it is relatively easy to drive these enzymatic reactions to completion in 2 hours.
Enzymatic reaction mixtures contained Tris.HCl (50 mM, pH 7.5), MgCl2 (10 mM), ZnCl2 (10 μM), DTT (5.0 mM), 2.4 μN-dansyl-GCVIA (SEQ ID NO: 2) (2), 0.040% (w/v) n-dodecyl-β-D-maltoside PFTase (80 nM), and varying concentrations of 1 (0-50 μM), in a final volume of 250 μL. The reaction mixtures were equilibrated at 30 ° C. for 1 min, initiated by the addition of PFTase, and monitored for an increase in fluorescence (λex=340 nm, λem=505 nm) for approximately 20 min. The initial rates of formation of products were obtained as slopes in IU/min using least squares analysis. Corrections were applied to all the rate calculations based on the difference between the fluorescence intensity of the prenylated product and the starting peptide. Assuming 100% conversion, the difference corresponds only to the fluorescence of the total amount of the product. […]

[1] = substrate: CC(C)=CCC/C(C)=C/CC/C(C)=C/CO[P@@](=O)(O)OP(=O)(O)O; conditions: other: single peptide concentration 2.4 μM; pH 7.5; 30.0 °C
Method: as §1
(§2) Enzymatic reaction mixtures contained Tris.HCl (50 mM, pH 7.5), MgCl2 (10 mM), ZnCl2 (10 μM), DTT (5.0 mM), 2.4 μN-dansyl-GCVIA (SEQ ID NO: 2) (2), 0.040% (w/v) n-dodecyl-β-D-maltoside PFTase (80 nM), and varying concentrations of 1 (0-50 μM), in a final volume of 250 μL. The reaction mixtures were equilibrated at 30 ° C. for 1 min, initiated by the addition of PFTase, and monitored for an increase in fluorescence (λex=340 nm, λem=505 nm) for approximately 20 min. The initial rates of formation of products were obtained as slopes in IU/min using least squares analysis. Corrections were applied to all the rate calculations based on the difference between the fluorescence intensity of the prenylated product and the starting peptide. Assuming 100% conversion, the difference corresponds only to the fluorescence of the total amount of the product. The slope was then divided by the fluorescence difference followed by multiplying by the total concentration of peptide (2.4 μM) which then gives the rate of formation of product in μM/s. It should be noted that the KM values reported here are actually apparent KM values, since the measurements were performed in only a single peptide concentration. The data were fit to a Michaelis-Menten model
(§3) [formula] using a nonlinear regression program, to determine kcat and KM (FIG. 4).

[2] = substrate: C#Cc1cc(C=O)cc(OC/C(C)=C/CC/C(C)=C/COP(=O)(O)OP(=O)(O)O)c1; conditions: other: single peptide concentration 2.4 μM; pH 7.5; 30.0 °C
Method: as §1, §2, §3

kcat lower than the kcat for FPP (PFTase; compared with FPP) [fold]	substrate for the enzyme (PFTase; model peptide N-dansyl-GCVIA (2))	Molecule	Km [1] [µM]	Km [2] [µM]	kcat [2] [s⁻¹]
42	alternative substrate	C#Cc1cc(C=O)cc(OC/C(C)=C/CC/C(C)=C/COP(=O)(O)OP(=O)(O)O)c1 [Compound 1, (2E,6E)-8-(3-ethynyl-5-formylphenoxy)-3,7-dimethylocta-2,6-dien-1-yl diphosphate]			
		PFTase (Saccharomyces cerevisiae S288C) (protein, made in house) chain 1: MRQRVGRSIARAKFINTALLGRKRPVMERVVDIAHVDSSKAIQPLMKELETDTTEARYKVLQSVLEIYDDEKNIEPALTKEFHKMYLDVAFEISLPPQMTALDASQPWMLYWIANSLKVMDRDWLSDDTKRKIVDKLFTISPSGGPFGGGPGQLSHLASTYAAINALSLCDNIDGCWDRIDRKGIYQWLISLKEPNGGFKTCLEVGEVDTRGIYCALSIATLLNILTEELTEGVLNYLKNCQNYEGGFGSCPHVDEAHGGYTFCATASLAILRSMDQINVEKLLEWSSARQLQEERGFCGRSNKLVDGCYSFWVGGSAAILEAFGYGQCFNKHALRDYILYCCQEKEQPGLRDKPGAHSDFYHTNYCLLGLAVAESSYSCTPNDSPHNIKCTPDRLIGSSKLTDVNPVYGLPIENVRKIIHYFKSNLSSPS chain 2: MEEYDYSDVKPLPIETDLQDELCRIMYTEDYKRLMGLARALISLNELSPRALQLTAEIIDVAPAFYTIWNYRFNIVRHMMSESEDTVLYLNKELDWLDEVTLNNPKNYQIWSYRQSLLKLHPSPSFKRELPILKLMIDDDSKNYHVWSYRKWCCLFFSDFQHELAYASDLIETDIYNNSAWTHRMFYWVNAKDVISKVELADELQFIMDKIQLVPQNISPWTYLRGFQELFHDRLQWDSKVVDFATTFIGDVLSLPIGSPEDLPEIESSYALEFLAYHWGADPCTRDNAVKAYSLLAIKYDPIRKNLWHHKINNLN	1.71	2.52	0.0123
